US20230212549A1 (3B PHARMACEUTICALS, published 2023)
Each block holds one binder with its values, some of them ahead of it. Numbered stars: 1 amine (or outer) side, 2 acyl side, 3 side chain; on linkers, the order of the positions; unused ones are H or OH. Bridge positions count the residues as written; N and C are the ends. Square brackets hold non-standard residues; d marks the D form. Primed or numbered codes have the meaning given here. * marks the point of attachment. tMeBn(DOTA-PP) = 1,3,5-trimethylbenzylidene, two thioethers to Cys, third CH2 bound to one N of piperazine whose other N bears DOTA, O=C(O)CN1CCN(CC(=O)O)CCN(CC(=O)N2CCN(Cc3cc(C[*:1])cc(C[*:2])c3)CC2)CCN(CC(=O)O)CC1; tMeBn(DOTA-AET) = 1,3,5-trimethylbenzylidene (from 1,3,5-tris(bromomethyl)benzene), two thioethers to Cys, third CH2 bears 2-aminoethanethiol via S, its amine acylated by DOTA; Ttds″ = 1,13-diamino-4,7,10-trioxatridecan-succinamic acid spacer, O=C(CCC(=O)[*:2])NCCCOCCOCCOCCCN[*:1]; Efa = N-[2-(2-amino-ethanesulfonyl)-ethyl]-succinamic acid, O=C(CCC(=O)[*:2])NCCS(=O)(=O)CCN[*:1]; Ttds = 1,13-diamino-4,7,10-trioxatridecan-succinamic acid, O=C(CCC(=O)[*:2])NCCCOCCOCCOCCCN[*:1]; 3MeBn = 3-Methylbenzylidene (m-xylylene thioether bridge from α,α′-dibromo-m-xylene); Ttds(4) = spacer between chelator and peptide, O=C(CCC(=O)[*:2])NCCCOCCOCCOCCCN[*:1]; N4Ac = 6-Carboxy-1,4,8,11-tetraazaundecane, an N4-chelator, NCCNCC(CNCCN)C(=O)*; 3MeBn(3) = 3-methylbenzylidene (m-xylylene), from α,α′-dibromo-m-xylene; DOTA = O=C(O)CN1CCN(CC(=O)O)CCN(CC(=O)*)CCN(CC(=O)O)CC1; mXylylene = c1cc(C[*:1])cc(C[*:2])c1; NMeF = CN[C@@H](Cc1ccccc1)C(=O)O; AGLU′ = not defined here; Nle = CCCC[C@H](N)C(=O)O; PEG6′ = not defined here; Hexanoyl = CCCCCC(=O)*; Ahx = NCCCCCC(=O)O

How the values were obtained:
[1] = molecular target: T1, recombinant human PREP (R&D systems, #4308-SE) (human, UniProt P48147 1-710); experiment: cell-based or functional assay
T1 sequence: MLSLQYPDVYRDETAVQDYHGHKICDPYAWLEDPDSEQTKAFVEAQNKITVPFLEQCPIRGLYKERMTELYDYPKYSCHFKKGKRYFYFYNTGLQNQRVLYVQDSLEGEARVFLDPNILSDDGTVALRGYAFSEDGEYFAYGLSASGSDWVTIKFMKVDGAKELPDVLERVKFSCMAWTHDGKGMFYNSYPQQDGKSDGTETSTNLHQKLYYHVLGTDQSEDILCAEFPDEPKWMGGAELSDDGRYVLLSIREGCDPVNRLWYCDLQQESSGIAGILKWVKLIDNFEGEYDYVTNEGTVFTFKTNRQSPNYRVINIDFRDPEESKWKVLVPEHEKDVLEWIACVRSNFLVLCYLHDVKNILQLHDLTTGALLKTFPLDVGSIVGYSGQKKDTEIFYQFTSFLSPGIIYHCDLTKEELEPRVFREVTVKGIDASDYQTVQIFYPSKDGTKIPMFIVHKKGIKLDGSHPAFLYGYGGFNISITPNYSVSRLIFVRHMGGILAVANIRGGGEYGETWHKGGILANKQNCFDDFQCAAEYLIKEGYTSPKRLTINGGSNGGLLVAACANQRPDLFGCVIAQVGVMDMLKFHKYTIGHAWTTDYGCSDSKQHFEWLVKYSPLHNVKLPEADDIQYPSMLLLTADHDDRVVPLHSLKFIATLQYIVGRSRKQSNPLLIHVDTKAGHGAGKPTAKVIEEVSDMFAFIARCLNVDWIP

[2] = molecular target: Recombinant human DPP4 (R&D systems, #9168-SE) (human, UniProt P27487 29-766); experiment: cell-based or functional assay
Recombinant human DPP4 (R&D systems, #9168-SE), sequence (P27487 29-766 limits assumed): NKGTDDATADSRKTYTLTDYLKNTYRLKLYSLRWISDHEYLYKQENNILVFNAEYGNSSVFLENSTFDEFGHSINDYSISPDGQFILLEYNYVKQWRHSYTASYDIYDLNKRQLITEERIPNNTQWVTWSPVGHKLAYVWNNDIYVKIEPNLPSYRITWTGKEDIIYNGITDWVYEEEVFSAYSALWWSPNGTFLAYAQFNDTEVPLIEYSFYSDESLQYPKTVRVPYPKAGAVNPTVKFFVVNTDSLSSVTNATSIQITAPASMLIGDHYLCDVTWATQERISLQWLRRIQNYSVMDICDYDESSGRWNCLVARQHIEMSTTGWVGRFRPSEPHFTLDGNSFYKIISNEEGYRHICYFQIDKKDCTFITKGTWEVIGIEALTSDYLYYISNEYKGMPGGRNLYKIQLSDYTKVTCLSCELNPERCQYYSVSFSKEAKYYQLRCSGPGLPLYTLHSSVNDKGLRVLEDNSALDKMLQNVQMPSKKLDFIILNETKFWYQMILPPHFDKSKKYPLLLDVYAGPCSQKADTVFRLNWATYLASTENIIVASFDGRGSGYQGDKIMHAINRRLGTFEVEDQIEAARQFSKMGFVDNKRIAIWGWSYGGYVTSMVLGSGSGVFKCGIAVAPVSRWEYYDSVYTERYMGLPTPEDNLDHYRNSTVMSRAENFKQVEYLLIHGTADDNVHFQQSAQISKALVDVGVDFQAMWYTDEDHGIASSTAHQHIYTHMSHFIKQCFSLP

[3] = molecular target: T2, Recombinant human FAP (R&D systems, #3715-SE) (human, UniProt Q12884 26-760); experiment: SPR (Biacore T200), FAP captured on anti-FAP antibody, single cycle kinetics
T2 construct: bought; in SPR captured on immobilized anti-FAP antibody MAB3715; also called rhFAP; human recombinant FAP

[4] = molecular target: T3, human fibroblast activation protein (FAP) on WI-38 fibroblasts (human, UniProt Q12884 1-760); experiment: competitive FACS, WI-38 cells, Cy5-labeled peptide as competitor; B = pIC50 7.1 to 8.0
T3 construct: FAP-expressing human WI-38 fibroblasts (ECACC)

[5] = molecular target: T2, Recombinant human FAP (R&D systems, …); experiment: cell-based or functional assay

B1: Hex-[Cys(3MeBn)-Pro-Pro-Thr-Glu-Phe-Cys]-Asp-His-Phe-Arg-Asp-Ttds-Lys(DOTA)-NH2 (peptide)
peptide: Hexanoyl-CPPTEFCDHFRD[Ttds″]K(DOTA)-NH2
modifications: linker 1-7 via mXylylene
SMILES: CCCCCC(=O)N[C@H]1CSCc2cccc(c2)CSC[C@@H](C(=O)N[C@@H](CC(=O)O)C(=O)N[C@@H](Cc2c[nH]cn2)C(=O)N[C@@H](Cc2ccccc2)C(=O)N[C@@H](CCCNC(=N)N)C(=O)N[C@@H](CC(=O)O)C(=O)NCCCOCCOCCOCCCNC(=O)CCC(=O)N[C@@H](CCCCNC(=O)CN2CCN(CC(=O)O)CCN(CC(=O)O)CCN(CC(=O)O)CC2)C(N)=O)NC(=O)[C@H](Cc2ccccc2)NC(=O)[C@H](CCC(=O)O)NC(=O)[C@H]([C@@H](C)O)NC(=O)[C@@H]2CCCN2C(=O)[C@@H]2CCCN2C1=O
pIC50 (PREP) [1]: < 6 pIC50 | pIC50 (DPP4) [2]: < 6 pIC50 | pKD Category [3]: > 8 pKD

B2: DOTA-Ttds-Nle-[Cys(3MeBn)-Pro-Pro-Thr-Glu-Phe-Cys]-Asp-His-Phe-Arg-Asp-NH2 (peptide)
peptide: {DOTA}-[Ttds(4)][Nle]CPPTEFCDHFRD-NH2
modifications: linker 3-9 via mXylylene
SMILES: CCCC[C@H](NC(=O)CCC(=O)NCCCOCCOCCOCCCNC(=O)CN1CCN(CC(=O)O)CCN(CC(=O)O)CCN(CC(=O)O)CC1)C(=O)N[C@H]1CSCc2cccc(c2)CSC[C@@H](C(=O)N[C@@H](CC(=O)O)C(=O)N[C@@H](Cc2c[nH]cn2)C(=O)N[C@@H](Cc2ccccc2)C(=O)N[C@@H](CCCNC(=N)N)C(=O)N[C@@H](CC(=O)O)C(N)=O)NC(=O)[C@H](Cc2ccccc2)NC(=O)[C@H](CCC(=O)O)NC(=O)[C@H]([C@@H](C)O)NC(=O)[C@@H]2CCCN2C(=O)[C@@H]2CCCN2C1=O
pIC50 (PREP) [1]: < 6 pIC50 | pIC50 (DPP4) [2]: < 6 pIC50 | pKD Category [3]: > 8 pKD

B3: N4Ac-Efa-Nle-[Cys-(3MeBn)-Pro-Pro-Thr-Glu-Phe-Cys]-OH (peptide)
peptide: N4Ac-[Efa][Nle]CPPTEFC-OH
modifications: linker 3-9 via 3MeBn(3)
notes: also called 3BP-4243
pIC50 [4]: 7.1 to 8 pic50

B4: DOTA-Ttds-Nle-[Cys(tMeBn(DOTA-AET))-Pro-Pro-Thr-Gln-Phe-Cys]-Asp-Ttds-Lys(DOTA)-NH2 (peptide)
peptide: {DOTA}-[Ttds][Nle]CPPTQFCD[Ttds]K(DOTA)-NH2
modifications: linker 3-9 via tMeBn(DOTA-AET)
notes: also called 3BP-4392
pIC50 [4]: 7.1 to 8 pic50

B6: Hex-[Cys(3MeBn)-Pro-Pro-Thr-Gln-Phe-Cys]-Asp-NH2 (peptide)
peptide: Hexanoyl-CPPTQFCD-NH2
modifications: linker 1-7 via mXylylene
SMILES: CCCCCC(=O)N[C@H]1CSCc2cccc(c2)CSC[C@@H](C(=O)N[C@@H](CC(=O)O)C(N)=O)NC(=O)[C@H](Cc2ccccc2)NC(=O)[C@H](CCC(N)=O)NC(=O)[C@H]([C@@H](C)O)NC(=O)[C@@H]2CCCN2C(=O)[C@@H]2CCCN2C1=O
pIC50 (PREP) [1]: < 6 pIC50 | pIC50 (DPP4) [2]: < 6 pIC50 | pKD Category [3]: > 8 pKD

B7: Hex-[Cys(3MeBn)-Pro-Pro-Thr-Glu-Phe-Cys]-Asp-His-Nmf-Arg-Ttds-Lys(DOTA)-NH2 (peptide)
peptide: Hexanoyl-CPPTEFCDH[NMeF]R[Ttds″]K(DOTA)-NH2
modifications: linker 1-7 via mXylylene
SMILES: CCCCCC(=O)N[C@H]1CSCc2cccc(c2)CSC[C@@H](C(=O)N[C@@H](CC(=O)O)C(=O)N[C@@H](Cc2c[nH]cn2)C(=O)N(C)[C@@H](Cc2ccccc2)C(=O)N[C@@H](CCCNC(=N)N)C(=O)NCCCOCCOCCOCCCNC(=O)CCC(=O)N[C@@H](CCCCNC(=O)CN2CCN(CC(=O)O)CCN(CC(=O)O)CCN(CC(=O)O)CC2)C(N)=O)NC(=O)[C@H](Cc2ccccc2)NC(=O)[C@H](CCC(=O)O)NC(=O)[C@H]([C@@H](C)O)NC(=O)[C@@H]2CCCN2C(=O)[C@@H]2CCCN2C1=O
notes: also called 3BP-3275
pIC50 (PREP) [1]: < 6 pIC50 | pIC50 (DPP4) [2]: < 6 pIC50 | pKD Category [3]: > 8 pKD

Second part, the binder after the results:

pIC50 [4]: 7.1 to 8 pic50 | pKD Category [3]: > 8 pKD
B5: N4Ac-PEG6-Nle-[Cys-(3MeBn)-Pro-Pro-Thr-Glu-Phe-Cys]-OH (peptide)
peptide: N4Ac-[PEG6′][Nle]CPPTEFC-OH
modifications: linker 3-9 via 3MeBn
notes: also called 3BP-4221

pIC50 [4]: 7.1 to 8 pic50
B8: N4Ac-Glu(AGLU′)-Glu(AGLU′)-Ttds-Nle-[Cys-(3MeBn)-Pro-Pro-Thr-Glu-Phe-Cys]-OH (peptide)
peptide: N4Ac-E(AGLU′)E(AGLU′)[Ttds″][Nle]CPPTEFC-OH
modifications: linker 5-11 via 3MeBn(3); reading uncertain; also: printed as N4Ac-Glu(AGLU′)-Glu(AGLU′)-Ttds-Nle-[Cys-(3MeBn)-Pro-Pro-Thr-Glu-Phe-Cys]-OH
notes: also called 3BP-4266

pIC50 Category (Activity) [5]: > 8 pIC50 | pIC50 [4]: 7.1 to 8 pic50
B9: H-Ahx-Ttds-Nle-[Cys-(tMeBn(DOTA-PP))-Pro-Pro-Thr-Gln-Phe-Cys]-Asp-NH2 (peptide)
peptide: H-[Ahx][Ttds][Nle]CPPTQFCD-NH2
modifications: linker 4-10 via tMeBn(DOTA-PP)
SMILES: CCCC[C@H](NC(=O)CCC(=O)NCCCOCCOCCOCCCNC(=O)CCCCCN)C(=O)N[C@H]1CSCc2cc(cc(CN3CCN(C(=O)CN4CCN(CC(=O)O)CCN(CC(=O)O)CCN(CC(=O)O)CC4)CC3)c2)CSC[C@@H](C(=O)N[C@@H](CC(=O)O)C(N)=O)NC(=O)[C@H](Cc2ccccc2)NC(=O)[C@H](CCC(N)=O)NC(=O)[C@H]([C@@H](C)O)NC(=O)[C@@H]2CCCN2C(=O)[C@@H]2CCCN2C1=O
notes: also called 3BP-4004
